# From PMC5074805
# Key:
# [1] = biological target: M4N-His (M4N with the stop helix extended by a C-terminal His6-tag); assay: SEC-MALS; static light scattering: Superdex S200 gel size exclusion column coupled to a miniDAWN Tristar laser photometer and a differential refractometer; buffer A (50 mM Tris pH 8, 150 mM NaCl)
# [2] = biological target: M4NΔC (M4N without stop helix); assay: as above
stoichiometry N [1],stoichiometry N [2],Substance
2,,M4N-His (M4N with the stop helix extended by a C-terminal His6-tag)
,2,M4NΔC (M4N without stop helix)
